# Source: patent US20140057311A1, “Device For High Throughput Investigations Of Multi-Cellular Interactions” (priority 2010, published 2014)
# Legend:
# [1] = test system: dorsal root ganglion (DRG) neurons; assay: DRG axonal outgrowth and turning under slit-2 gradient after 5-FU treatment; assay type: cell-based, mice
# Description: (§1) Primary hippocampal neurons and dorsal root ganglion (DRG) neurons cultured in the devices were obtained from embryonic day 14.5-16.5 mice as per protocols described in detail elsewhere (R. Li, Methods. Cell. Biol., 1998, 57, 167; W. E. Thomas, Life. Sci., 1986, 38, 297; A. V. Kwiatkowski, et al., Neuron, 2007, 56, 441). Cells from micro-dissected cortices were dissociated and resuspended in serum-free media at a final concentration of 10 million cells/mL. The neurons were seeded into the devices (n=10 devices per test condition) immediately after dissociation and cultured for 1-2 days, with serum-free media replaced in all the channels twice a day, before any guidance cue was introduced. All cell cultures were maintained in a humidified incubator at 5% CO2 and 37° C. For netrin-1 studies (FIGS. 11A-11C), hippocampal neurons were transfected using amaxa nucleofection, with a pmax-gfp plasmid cotransfected with a plasmid expressing DCC (deleted in colorectal cancer) receptor (M. J. Galko and M. Tessier-Lavigne, Science, 2000, 289, 1365).
# (§2) Netrin-1 added in the channel was obtained from multiple sources: lab-isolated (T. Serafini, et al., Cell, 1994, 78, 409) netrin-1 (0.1-10 μg/mL), and netrin-1 released from cDNA transfected stable fibroblast cell line (K. Löw, et al., J. Neurosci., 2008, 28, 1099). […] Brain pulp was prepared in the lab from fresh whole mouse brain tissues. Briefly, the brain tissue was homogenized with a rotor stator in a hypotonic solution supplemented with protease inhibitors (protease inhibitor cocktail; Roche, USA), filtered, total protein content measured using a Bradford protein assay, and diluted to […] concentration. […]
# (§3) Phase-contrast, fluorescence and confocal microscopy were used to characterize axonal distribution and quantify axonal turning in 3D collagen gels within the devices. […] The last 100 μm segment along the length of each axon leading to the growth cone was traced with NeuronJ (E. Meijering, et al., Cytometry. Part. A, 2004, 58, 167), and the angle this segment makes with the horizontal line (0°) was measured. […]
# [2] = test system: Human Lung Cancer Cell Line A549 aggregates; assay: A549 cancer aggregate break-up/migration in collagen gel with HUVEC monolayer, high throughput microfluidic device; assay type: cell-based
# Description: Red colure cells are from Human Lung Cancer Cell Line A549 were transfected with H2B protein (m-Cherry), and partially disassociated, yielding cell aggregates of random sizes, between 40 um and 70 um. This was aspirated through a 100 micrometer strainer, yielding a media with cell aggregates with radii under 100 micrometers. This was poured through a second 40-micrometer filter, yielding a media with A549 aggregates between 40 and 100 micrometers. The cells were then centrifuged at 800 rpm for 2 minutes, and the media aspirated.
# Collagen gel was prepared by adding 9 microliters of 1 M NaOH to 20 microliters of Phosphate Buffered Solution (BD Bioscience), and then adding 46 microliters of ultrapure H2O. Finally, 125 microliters of Type I Rat Tail Collagen at 2.5 mg/mL (BD Biosciences) were added, and mixed thoroughly.
# The A549 aggregates were then mixed with the collagen gel, yielding a mixture of aggregates within the gel. Ten microliters of the gel were then injected into the center channel of the device shown in FIGS. 1 and 2, yielding 36 distinct gel-fluid interfaces within the device.
# Human Umbilical Vein Endothelial Cells were transfected by GFP protein label disassociated, and flowed into the first media channel. Media without cells was added to the second channel. Adding a small bubble of media on each port of the first media channel yielded a hydrostatic pressure gradient, pushing cells to the gel-media interfaces. The pressure gradient was maintained for one hour, before the bubbles were removed. The device was cultured, and imaged at 0, 12, 36, 60, 84, and 108 hours. The endothelial cells were seen to create an endothelial monolayer along the bottom of the media channel, as well as on the gel-media interface.
# In the control group, no drugs were added to the system. In the experimental group, the commercial cancer anti-metastatic drug Iressa (AstraZeneca), an EGFR-TK enzyme blocker, was added to the endothelial cell medium in doses of 100 nM, 500 nM, 1000 nM, 1500 nM, and 2000 nM. […]
# [3] = test system: dorsal root ganglion (DRG) neurons; assay: DRG neuron migration into 3D collagen scaffold under slit-2 gradient; assay type: cell-based, mice; details: slit-2 250 ng/mL
# Description: as §1, §2, §3
# [4] = test system: hippocampal neurons; assay: Hippocampal axonal turning under guidance cue gradient in 3D collagen gel, spider microfluidic device; assay type: cell-based, mice
# Description: as §1
# Netrin-1 added in the channel was obtained from multiple sources: lab-isolated (T. Serafini, et al., Cell, 1994, 78, 409) netrin-1 (0.1-10 μg/mL), and netrin-1 released from cDNA transfected stable fibroblast cell line (K. Löw, et al., J. Neurosci., 2008, 28, 1099). […] Brain pulp was prepared in the lab from fresh whole mouse brain tissues. Briefly, the brain tissue was homogenized with a rotor stator in a hypotonic solution supplemented with protease inhibitors (protease inhibitor cocktail; Roche, USA), filtered, total protein content measured using a Bradford protein assay, and diluted to […] concentration. The chemorepellant used was Slit-2 (62.5 or 250 ng/mL; R&D Systems, Minneapolis, Minn.)). For chemosensing studies, the medium was removed from all the ports after 24-48 h of cell seeding, and 350 μL medium containing known concentration of guidance cue was introduced in the chemoattractant channel, and 350 μL serum-free media in each of the remaining two channels. For the experiments with netrin-1 being released from fibroblasts, transfected fibroblasts (1×10^5 cells) were seeded in the chemoattractant channel (source), and normal fibroblasts (non-transfected, 1×10^5 cells) were seeded in the left channel (sink). […] Netrin-1 released from the transfected fibroblasts diffuses across the collagen-1 gel and creates a gradient. The medium was changed at regular intervals to maintain chemogradient at all times. The control devices which received no guidance cues were cultured in the same procedure as with test cases.
# as §3, with “devices. Florescent and phase contrast images were acquired with a Nikon TE300 microscope equipped with a Hamamatsu camera and Openlab image acquisition software. Axonal and nuclei staining were performed after fixation with 4% PFA (30 min).” for “devices.”
# [5] = slit-2 250 ng/mL in the right channel, n=64 axons
molecule,measurement,setting,value
"O=c1[nH]cc(F)c(=O)[nH]1 [5-FU, 5-fluorourasil, reference compound]",DRG cell migration into the scaffold,"[1]; 5-FU 10^−5 M seeded with DRG explants on day 0, 24 h culture",no cell migration into the scaffold was observed
COc1cc2ncnc(Nc3ccc(F)c(Cl)c3)c2cc1OCCCN1CCOCC1 [Iressa],behaviour of A549 cancer aggregates,[2]; 100 nM and 500 nM drug concentrations,cancer aggregates were seen to break up
same,behaviour of A549 cancer aggregates,"[2]; 1000 nM, 1500 nM and 2000 nM drug concentrations",the cancer aggregates stayed intact
same,minimum effective dose,"[2]; drug in endothelial cell medium, keeps A549 aggregates intact",1000 nM
"slit-2: chemorepellant guidance cue Slit-2 (R&D Systems) (protein, UniProt O94813 31-1529, looked up) Slit homolog 2 protein: QCSCSGSTVDCHGLALRSVPRNIPRNTERLDLNGNNITRITKTDFAGLRHLRVLQLMENKISTIERGAFQDLKELERLRLNRNHLQLFPELLFLGTAKLYRLDLSENQIQAIPRKAFRGAVDIKNLQLDYNQISCIEDGAFRALRDLEVLTLNNNNITRLSVASFNHMPKLRTFRLHSNNLYCDCHLAWLSDWLRQRPRVGLYTQCMGPSHLRGHNVAEVQKREFVCSGHQSFMAPSCSVLHCPAACTCSNNIVDCRGKGLTEIPTNLPETITEIRLEQNTIKVIPPGAFSPYKKLRRIDLSNNQISELAPDAFQGLRSLNSLVLYGNKITELPKSLFEGLFSLQLLLLNANKINCLRVDAFQDLHNLNLLSLYDNKLQTIAKGTFSPLRAIQTMHLAQNPFICDCHLKWLADYLHTNPIETSGARCTSPRRLANKRIGQIKSKKFRCSAKEQYFIPGTEDYRSKLSGDCFADLACPEKCRCEGTTVDCSNQKLNKIPEHIPQYTAELRLNNNEFTVLEATGIFKKLPQLRKINFSNNKITDIEEGAFEGASGVNEILLTSNRLENVQHKMFKGLESLKTLMLRSNRITCVGNDSFIGLSSVRLLSLYDNQITTVAPGAFDTLHSLSTLNLLANPFNCNCYLAWLGEWLRKKRIVTGNPRCQKPYFLKEIPIQDVAIQDFTCDDGNDDNSCSPLSRCPTECTCLDTVVRCSNKGLKVLPKGIPRDVTELYLDGNQFTLVPKELSNYKHLTLIDLSNNRISTLSNQSFSNMTQLLTLILSYNRLRCIPPRTFDGLKSLRLLSLHGNDISVVPEGAFNDLSALSHLAIGANPLYCDCNMQWLSDWVKSEYKEPGIARCAGPGEMADKLLLTTPSKKFTCQGPVDVNILAKCNPCLSNPCKNDGTCNSDPVDFYRCTCPYGFKGQDCDVPIHACISNPCKHGGTCHLKEGEEDGFWCICADGFEGENCEVNVDDCEDNDCENNSTCVDGINNYTCLCPPEYTGELCEEKLDFCAQDLNPCQHDSKCILTPKGFKCDCTPGYVGEHCDIDFDDCQDNKCKNGAHCTDAVNGYTCICPEGYSGLFCEFSPPMVLPRTSPCDNFDCQNGAQCIVRINEPICQCLPGYQGEKCEKLVSVNFINKESYLQIPSAKVRPQTNITLQIATDEDSGILLYKGDKDHIAVELYRGRVRASYDTGSHPASAIYSVETINDGNFHIVELLALDQSLSLSVDGGNPKIITNLSKQSTLNFDSPLYVGGMPGKSNVASLRQAPGQNGTSFHGCIRNLYINSELQDFQKVPMQTGILPGCEPCHKKVCAHGTCQPSSQAGFTCECQEGWMGPLCDQRTNDPCLGNKCVHGTCLPINAFSYSCKCLEGHGGVLCDEEEDLFNPCQAIKCKHGKCRLSGLGQPYCECSSGYTGDSCDREISCRGERIRDYYQKQQGYAACQTTKKVSRLECRGGCAGGQCCGPLRSKRRKYSFECTDGSSFVDEVEKVVKCGCTRCVS","DRG neuron migration down the gradient, percentage in Q3",[3],74±12.5%
same,increase in DRG neuron migration down the gradient relative to controls,[3]; p<0.001 vs. controls,5 fold
same,increase in DRG neuron migration down the gradient relative to 62.5 ng/mL slit-2 gradient,[3]; p<0.01,2.7 fold
same,percentage of DRG axons repelled,"[1]; slit-2 250 ng/mL in right hand channel after 24 h 5-FU, p<0.03 vs. controls",70±14.2%
same,inhibition of DRG neuron axonal turning into Q1 relative to control cultures,"[1]; slit-2 250 ng/mL, p<0.05 vs. controls",56%
same,"percentage of axons that turned away from the high concentration, 250 ng/mL versus 62.5 ng/mL","[4]; increasing slit-2 from 62.5 ng/mL to 250 ng/mL, p<0.001",tripled
same,chemorepellent effect on hippocampal axonal turning,"[4]; slit-2 62.5 ng/mL, n=51 axons",did not exhibit similar strong repellent characteristics
same,percentage of axons in Q1 (towards guidance cue),[4]; [5],18.2±4.5%
same,percentage of axons in Q3 (away from guidance cue),[4]; [5],42.6±9.1%
same,enhancement of axonal turning down the gradient relative to controls which received no cues,"[4]; slit-2 250 ng/mL, p<0.001",3.4 fold
